Results as given in patent US20080138837A1, “Methods and kits for detecting and measuring ADAMTS13/FXI complexes” (priority 2004, published 2008).
Values belong to the substance of their own block, whether it stands above or below them. Numbered stars: 1 amine (or outer) side, 2 acyl side, 3 side chain; on linkers, the order of the positions; unused ones are H or OH. * marks the point of attachment. DABCYL = CN(C)c1ccc(/N=N/c2ccc(C(=O)*)cc2)cc1; EDANS = O=S(=O)(O)c1cccc2c(NCCN*)cccc12; AMC = Cc1cc(=O)oc2cc(N*)ccc12; Suc = O=C(CCC(=O)[*:2])[*:1]

How the values were obtained:
human FXI = human FXI (Homo sapiens, UniProt P03951); assay: Binding of recombinant ADAMTS13 to FXI-coated plates (ELISA); conditions: FXI coated at 1 μg/ml, 1 hour, detection anti-ADAMTS13 TSP5-7 rabbit polyclonal, OD 450 nm, FIG. 22
Experimental: Binding of recADAMTS13 to immobilized FXI was measured using microplates coated with human FXI at a concentration of 1 μg/ml. RecADAMTS13 in solution was added to the FXI-coated microwells and incubated for 1 hour. ADAMTS13/FXI complexes were measured using ELISA. Specifically, after incubation with recADAMTS13, plates were washed with PBS +1% Tween, followed by incubation for 1 hour with anti-ADAMTS13 TSP5-7 rabbit polyclonal antibodies (1 μg/ml). Plates were washed again in PBS+1% Tween, followed by addition of a murine anti-rabbit IgG antibody conjugated to HRP. The detection antibody was incubated for an hour at room temperature. After washing the excess detection antibody from the plates, the TMB substrate was added, incubated for 10 minutes, after which 0.5 M sulfuric acid was added to terminate the reaction. The optical density of the mixture was measured at 450 nm on a spectrophotometer (FIG. 22).

[1] = test system: form of ADAMTS13 found on platelets; assay: ADAMTS13 activity on isolated platelets using a FRET substrate; assay type: biochemical, human; conditions: 8 μg/ml substrate, 37° C., Ex 360 nm/Em 440 nm, FIG. 4
Experimental: (§1) Blood was collected by venopuncture into collection tubes containing 0.12 M sodium citrate, an anti-coagulant. The citrated blood was centrifuged at 700 rpm for 10 minutes. The supernatant was removed and saved as the platelet rich plasma (PRP) fraction. The PRP was centrifuged at 10,000 rpm for 20 minutes. The supernatant was removed and saved as the platelet poor plasma (PPP) fraction. The pellet contained the platelets, which were washed by resuspending in 10 mM Tris-HCl pH 8.0 buffer and centrifuging at 10,000 rpm for 10 minutes. The isolated platelets were resuspended in buffer and used in experiments.
ADAMTS13 activity was measured using a fluorescent substrate attached to a donor moiety and an acceptor moiety that functions by fluorescence resonance energy transfer (FRET). The ADAMTS13 selective substrate, NH2-Arg-Lys(DABCYL)-NLVYMVTGD(EDANS)-Arg-COOH, was used in this example. […] The intact peptidyl substrate has low fluorescence, due to quenching of the […]. Cleavage of the substrate between the tyrosine and methionine of the peptide sequence results in an increase in fluorescence.
Isolated platelets in 10 mM Tris-HCl pH 8.0 assay buffer were incubated with a final concentration of 8 μg/ml of the FRET substrate at 37° C. The fluorescence was measured in a spectrofluorometric plate reader (Ex 360 nm/Em 440 nm). […]

ADAMTS13/FXI complexes = target: T1, ADAMTS13/FXI complexes (Homo sapiens, UniProt P03951+Q76LX8); assay: Formation of ADAMTS13/FXI complexes in FXI-deficient plasma after addition of FXI (ELISA); assay type: binding; conditions: FXI-deficient plasma diluted 1:8 in ECD, 30 minutes, FIG. 25
T1 construct: addition of FXI (Enzyme Research Lab, Canada) to FXI-deficient plasma diluted 1:8 in ECD; purchased Enzyme Research Lab, Canada; host or cells: FXI purchased; ADAMTS13 endogenous in plasma from patients with congenital FXI deficiency
Experimental: An assay was developed for measuring the presence of ADAMTS13/FXI complexes by ELISA analysis. A standard curve was generated using PNP (Saturn Biomedical), diluted 1:4 in ECD buffer (PBS/3% BSA/gentamicin), and then serially diluted 1:2 in ECD buffer. Assays were performed in duplicate, using 100 μl of each standard dilution in Immulon 4 HBX 96-well microtiter plates (ThermoLabsystems, Franklin, Mass.) that were coated with goat anti-human ADAMTS13 antibody raised against a synthetic peptide sequence in the CUB1 domain (SC21510; Santa Cruz Biotechnology, Santa Cruz, Calif.) at a concentration of 1 μg/ml in 3-(N-morpholino)propanesulfonate (MOPS) coating buffer (0.1 M MOPS, 0.15 M NaCl, 0.05 M CaCl2, 0.066 M Trehalose, 0.02% NaN3, pH 7.4). Microtiter plates were blocked with SuperBlock (Pierce Chemical Co., Indianapolis, Ind.).
Standards and diluted samples were incubated in coated microwells for 2 hours at room temperature, with mixing. […] The optical density of the mixture was then read in a spectrophotometer at 450 nm.
Formation of ADAMTS13/FXI complexes was measured after addition of FXI (Enzyme Research Lab, Canada) to FXI-deficient plasma diluted 1:8 in ECD. […] The plasma containing newly formed ADAMTS13/FXI complexes were then added to anti-ADAMTS13 antibody-coated microwells and quantified, as described in Example 16.

[2] = target: T2, recombinant ADAMTS13 (recADAMTS13) (Homo sapiens, UniProt Q76LX8); assay: Recombinant ADAMTS13 activity in tissue culture supernatants using fluorescent substrate; assay type: biochemical; conditions: 0.8 mM substrate, 50 mM Tris-HCl pH 8.0, FIG. 5
T2 construct: made in house; host or cells: HEK 293 cells; crude culture supernatant supplied by Dr. David Ginsburg, University of Michigan
T2 sequence (Q76LX8 75-1427): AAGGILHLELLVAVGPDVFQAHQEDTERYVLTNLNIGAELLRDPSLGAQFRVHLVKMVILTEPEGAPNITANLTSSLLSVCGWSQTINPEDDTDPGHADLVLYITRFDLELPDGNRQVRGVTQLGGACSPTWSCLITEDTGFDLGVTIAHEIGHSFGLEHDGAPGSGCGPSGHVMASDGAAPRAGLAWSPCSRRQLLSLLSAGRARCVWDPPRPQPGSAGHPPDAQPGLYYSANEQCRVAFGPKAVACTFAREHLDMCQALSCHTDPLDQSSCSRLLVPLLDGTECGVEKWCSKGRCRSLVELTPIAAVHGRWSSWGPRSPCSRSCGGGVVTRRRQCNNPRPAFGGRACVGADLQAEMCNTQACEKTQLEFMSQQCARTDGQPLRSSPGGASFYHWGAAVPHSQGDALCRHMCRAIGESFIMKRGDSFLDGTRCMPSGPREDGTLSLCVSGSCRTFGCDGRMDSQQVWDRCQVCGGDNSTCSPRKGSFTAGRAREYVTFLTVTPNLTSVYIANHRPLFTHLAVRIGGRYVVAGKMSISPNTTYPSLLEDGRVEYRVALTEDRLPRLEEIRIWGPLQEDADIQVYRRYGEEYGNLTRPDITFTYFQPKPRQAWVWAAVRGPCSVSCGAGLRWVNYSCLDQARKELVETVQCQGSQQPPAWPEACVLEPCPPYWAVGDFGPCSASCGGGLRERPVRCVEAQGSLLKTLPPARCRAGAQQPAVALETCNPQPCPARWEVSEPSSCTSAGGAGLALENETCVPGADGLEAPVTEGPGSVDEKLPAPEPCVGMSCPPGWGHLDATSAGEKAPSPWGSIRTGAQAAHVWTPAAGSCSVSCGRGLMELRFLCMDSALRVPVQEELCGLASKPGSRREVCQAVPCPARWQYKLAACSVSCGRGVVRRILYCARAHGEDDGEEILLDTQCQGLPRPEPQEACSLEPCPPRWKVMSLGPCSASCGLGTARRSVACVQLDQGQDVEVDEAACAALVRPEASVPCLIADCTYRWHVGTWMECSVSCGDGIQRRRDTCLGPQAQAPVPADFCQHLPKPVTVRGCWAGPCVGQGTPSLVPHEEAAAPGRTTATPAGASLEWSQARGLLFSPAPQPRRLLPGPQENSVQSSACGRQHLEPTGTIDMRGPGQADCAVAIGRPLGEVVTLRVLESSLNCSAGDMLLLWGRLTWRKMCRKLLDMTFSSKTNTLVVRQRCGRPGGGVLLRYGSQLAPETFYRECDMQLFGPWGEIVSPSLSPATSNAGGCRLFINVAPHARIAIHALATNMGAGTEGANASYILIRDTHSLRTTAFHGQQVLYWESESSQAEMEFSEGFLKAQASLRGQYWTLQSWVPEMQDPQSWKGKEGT
Description: HEK 293 cells were transfected with a vector encoding ADAMTS13. Cell culture supernatant from the transfected HEK 293 cells, containing recombinant ADAMTS13, was generously provided by Dr. David Ginsburg (University of Michigan, Mich.). Mock transfected cell supernatant with no recombinant ADAMTS13 was also provided as a control.
Fluorescence signals were compared between tissue culture supernatant from HEK 293 cells transfected with a viral vector coding for recombinant ADAMTS13 (“recADAMTS13”) and supernatant from mock transfected HEK 293 cells, as a control. (Culture supernatants were supplied by Dr. David Ginsburg, University of Michigan.) Varying amounts of the two culture supernatants were added to 0.8 mM Suc-Leu-Leu-Val-Tyr-AMC (SEQ ID NO: 2) fluorescent substrate in 50 mM Tris-HCl pH 8.0 in a total volume of 100 μl.

ADAMTS13 = ADAMTS13 activity in PRP using peptidyl substrates; assay type: biochemical, human; conditions: 0.8 mM substrate, 37° C., FIG. 3
Experimental: as §1
As discussed above, Furlan et al. reported that some peptidyl-pNA moieties, such as XLY-pNA and XVY-pNA, were not substrates for ADAMTS13. We prepared LVY-pNA and tested it for its ability to be cleaved by ADAMTS13. The results shown in FIG. 2 confirm the findings of Furlan et al., i.e., LVY-pNA was not cleaved by ADAMTS13.
In order to determine the effect of modifying the length of the peptide sequence conjugated to the AMC fluorochrome, normal PRP (20 μl) was incubated at 37° C. with a final concentration of 0.8 mM Suc-LLVY-AMC or LVY-AMC in 10 mM Tris-HCl pH 8.0 buffer in total volume of 200 μl. Fluorescence was measured using a microtiter fluorophotometric plate reader (Ex 360 nm/Em 460 nm).

complex formation with immobilized FXI (human FXI): stable complex
Substance: recADAMTS13: recombinant ADAMTS13 in culture supernatant of transfected HEK 293 cells

Substance: NH2-Arg-Lys-(DABCYL)-Asn-Leu-Val-Tyr-Met-Val-Thr-Gly-Asp-(EDANS)-Arg-COOH (H-RK(DABCYL)NLVYMVTGD(EDANS)R-OH; SMILES CSCC[C@H](NC(=O)[C@H](Cc1ccc(O)cc1)NC(=O)[C@@H](NC(=O)[C@H](CC(C)C)NC(=O)[C@H](CC(N)=O)NC(=O)[C@H](CCCCNC(=O)c1ccc(/N=N/c2ccc(N(C)C)cc2)cc1)NC(=O)[C@@H](N)CCCNC(=N)N)C(C)C)C(=O)N[C@H](C(=O)N[C@H](C(=O)NCC(=O)N[C@@H](CC(=O)NCCNc1cccc2c(S(=O)(=O)O)cccc12)C(=O)N[C@@H](CCCNC(=N)N)C(=O)O)[C@@H](C)O)C(C)C) [FRET substrate made for American Diagnostica Inc]
fluorescence on incubation of platelets with FRET substrate (cleavage by platelet ADAMTS13) [1]: increased fluorescence over time

Substance: FXI: Factor XI zymogen (Enzyme Research Lab, Canada)
ADAMTS13/FXI complexes formed upon addition of FXI (ADAMTS13/FXI complexes): increasing amounts of ADAMTS13/FXI complexes were formed

Substance: Suc-Leu-Leu-Val-Tyr-AMC (Suc-LLVY-{AMC}; SMILES Cc1cc(=O)oc2cc(NC(=O)[C@H](Cc3ccc(O)cc3)NC(=O)[C@@H](NC(=O)[C@H](CC(C)C)NC(=O)[C@H](CC(C)C)NC(=O)CCC(=O)O)C(C)C)ccc12) [Suc-LLVY-AMC, fluorogenic peptidyl substrate from Bachem Bioscience Inc]
cleavage of fluorescent substrate by recADAMTS13 in supernatant of transfected HEK 293 cells versus mock [2]: cleavage of the substrate by recADAMTS13 | cleavage of peptidyl-AMC substrate by ADAMTS13 in PRP (ADAMTS13; normal PRP 20 μl, 10 mM Tris-HCl pH 8.0, Ex 360 nm/Em 460 nm): cleaved | fluorescence signal over time as compared to the LVY-AMC substrate (ADAMTS13; normal PRP): higher signal over time
